In US20100261620A1 (published 2010) one finds Kd, koff and kon data, which are given here for 33 molecules.

Substitutions are numbered along the chain they refer to.

The labels stand for the following.
B1: M448 (antibody, V domains shown)
VH: QVTLKESGPVLVKPTETLTLTCTVSGFSLSTYGMGVGWIRQPPGKALEWLAHIWWDDVKRYNPALKSRLTISKDTSKSQVVLTMTNMDPVDTATYYCARMGSDYDVWFDYWGQGTLVTVSS
VL: EIVLTQSPATLSLSPGERATLSCRASKSISKYLAWYQQKPGQAPRLLIYSGSTLQSGIPARFSGSGSGTDFTLTISSLEPEDFAVYYCQQHSHGPYTFGQGTKLEIK
notes: anti-IL-13, human IgG1
B2: M1286 (antibody, V domains shown)
VH: B1 VH with M34S, M100L
VL: EIVLTQSPATLSLSPGERATLSCRASKSISKYLAWYQQKPGQAPRLLIYSGSTLQSGIPARFSGSGSGTDFTLTISSLEPEDFAVYYCQQHDYPYTFGQGTKLEIK
B3: M1292 (antibody, V domains shown)
VH: B1 VH with M34E, M100L
VL: B2 VL
B4: M472 (antibody, V domains shown)
VH: B1 VH
VL: B1 VL with H91P, S92L, H93D, G94S
notes: anti-IL-13, human IgG1
B5: M469 (antibody, V domains shown)
VH: B1 VH
VL: B1 VL with S92D, H93W, G94E
notes: anti-IL-13, human IgG1
B6: M476 (antibody, V domains shown)
VH: B1 VH
VL: B1 VL with H93V
notes: anti-IL-13, human IgG1
B7: M459 (antibody, V domains shown)
VH: B1 VH
VL: B1 VL with H91P, S92L, H93E, G94A
notes: anti-IL-13, human IgG1
B8: M462 (antibody, V domains shown)
VH: B1 VH
VL: B1 VL with S92N, H93F
notes: anti-IL-13, human IgG1
B9: M457 (antibody, V domains shown)
VH: B1 VH
VL: B1 VL with S92D, H93Y, G94A
notes: anti-IL-13, human IgG1
B10: M455 (antibody, V domains shown)
VH: B1 VH
VL: B1 VL with S92N, H93E, G94A
notes: anti-IL-13, human IgG1
B11: M452 (antibody, V domains shown)
VH: B1 VH
VL: B1 VL with S92L, H93N
notes: anti-IL-13, human IgG1
B12: M471 (antibody, V domains shown)
VH: B1 VH
VL: B1 VL with H91P, S92I, H93D, G94A
notes: anti-IL-13, human IgG1
B13: M475 (antibody, V domains shown)
VH: B1 VH
VL: B1 VL with S92L, H93M
notes: anti-IL-13, human IgG1
B14: M473 (antibody, V domains shown)
VH: B1 VH
VL: B1 VL with S92D, H93R, G94D
notes: anti-IL-13, human IgG1
B15: M470 (antibody, V domains shown)
VH: B1 VH
VL: B1 VL with S92L, H93D, G94S
notes: anti-IL-13, human IgG1
B16: M451 (antibody, V domains shown)
VH: B1 VH
VL: B1 VL with H91P, S92L, H93D, G94V
notes: anti-IL-13, human IgG1
B17: M1268 (antibody, V domains shown)
VH: B1 VH with M34V, M100L
VL: B1 VL with S92N, H93E, G94Y
notes: anti-IL-13, human IgG1; text gives the Met positions as 34 and 100; copies: 2 + 2
B18: M463 (antibody, V domains shown)
VH: B1 VH
VL: B1 VL with H91Q, S92D, H93L
notes: anti-IL-13, human IgG1
B19: M465 (antibody, V domains shown)
VH: B1 VH
VL: B1 VL with S92D, H93N, G94S
notes: anti-IL-13, human IgG1
B20: M479 (antibody, V domains shown)
VH: B1 VH
VL: B1 VL with H91P, S92L, H93D, G94T
notes: anti-IL-13, human IgG1
B21: M467 (antibody, V domains shown)
VH: B1 VH
VL: B1 VL with H93W, G94A
notes: anti-IL-13, human IgG1
B22: M482 (antibody, V domains shown)
VH: B1 VH
VL: B1 VL with S92L, H93D, G94S
notes: anti-IL-13, human IgG1; printed changes are the same as for M470
B23: M466 (antibody, V domains shown)
VH: B1 VH
VL: B1 VL with S92D, H93W, G94S
notes: anti-IL-13, human IgG1
B24: M474 (antibody, V domains shown)
VH: B1 VH
VL: B1 VL with S92D, H93L
notes: anti-IL-13, human IgG1
B25: M478 (antibody, V domains shown)
VH: B1 VH
VL: B1 VL with S92N
notes: anti-IL-13, human IgG1
B26: M464 (antibody, V domains shown)
VH: B1 VH
VL: B1 VL with S92E, H93W
notes: anti-IL-13, human IgG1
B27: M468 (antibody, V domains shown)
VH: B1 VH
VL: B1 VL with S92F, H93W
notes: anti-IL-13, human IgG1
B28: M461 (antibody, V domains shown)
VH: B1 VH
VL: B1 VL with H93I
notes: anti-IL-13, human IgG1
B29: M449 (antibody, V domains shown)
VH: B1 VH
VL: B1 VL with S92E, H93S
notes: anti-IL-13, human IgG1
B30: M456 (antibody, V domains shown)
VH: B1 VH
VL: B1 VL with H93Y
notes: anti-IL-13, human IgG1
B31: M477 (antibody, V domains shown)
VH: B1 VH
VL: B1 VL with H93S
notes: anti-IL-13, human IgG1
B32: M454 (antibody, V domains shown)
VH: B1 VH
VL: B1 VL with H91Q, S92D, H93Y
notes: anti-IL-13, human IgG1
B33: M450 (antibody, V domains shown)
VH: B1 VH
VL: B1 VL with S92D, H93P
notes: anti-IL-13, human IgG1

This experiment deals with IL-13 (Homo sapiens (Human), UniProt P35225 35-146, limits assumed). In words: Biacore. Background: Surface plasmon resonance follows binding to a sensor surface in real time, without labels.
Chain of IL-13 (P35225 35-146 limits assumed): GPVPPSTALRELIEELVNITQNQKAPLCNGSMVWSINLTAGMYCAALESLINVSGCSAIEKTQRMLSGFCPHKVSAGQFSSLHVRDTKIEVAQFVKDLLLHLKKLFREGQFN
Take B1: binding was characterised by a dissociation constant (Kd) of 0.092 nM; the koff (usually the first-order rate constant of dissociation) amounted to 0.000127 s⁻¹; the kon (as a rule, a measure of how fast the partners come together) was 1.39e+06 M⁻¹ s⁻¹.

As for B2, the Kd – broadly, the free concentration of one partner at which half of the binding sites on the other are occupied at equilibrium, for simple one-to-one binding – was 0.009 nM; the koff is 1.2e-05 s⁻¹; the kon turned out to be 1.28e+06 M⁻¹ s⁻¹.

Take B3: the dissociation constant (Kd) is 0.008 nM, the koff amounted to 8e-06 s⁻¹ and the kon was 1.05e+06 M⁻¹ s⁻¹.

With B4, the Kd worked out at 0.259 nM, the koff stood at 0.000375 s⁻¹ and the kon was found to be 1.44e+06 M⁻¹ s⁻¹.

Consider B5, for which the Kd is 0.1 nM, the dissociation rate constant (koff) was 0.000143 s⁻¹ and the kon came out at 1.43e+06 M⁻¹ s⁻¹.

The molecule B6 showed a Kd of 0.315 nM, a koff of 0.000321 s⁻¹ and a kon of 1.02e+06 M⁻¹ s⁻¹.

B7 showed a dissociation constant Kd of 0.356 nM, a koff of 0.000449 s⁻¹ and a kon of 1.26e+06 M⁻¹ s⁻¹.

As to B8, the affinity, expressed as Kd, was 0.366 nM; the koff came to 0.000417 s⁻¹; the kon is 1.14e+06 M⁻¹ s⁻¹.

Regarding B9, the Kd is 0.193 nM, the koff is 0.000214 s⁻¹ and the kon was found to be 1.11e+06 M⁻¹ s⁻¹.

B10 gave a Kd of 0.186 nM, a koff of 0.000303 s⁻¹ and an association rate constant (kon) of 1.63e+06 M⁻¹ s⁻¹.

In turn, B11 displayed an equilibrium dissociation constant (Kd) of 0.233 nM, an off-rate (koff) of 0.00027 s⁻¹ and a kon of 1.16e+06 M⁻¹ s⁻¹.

On to B12, for which binding was put at a Kd of 0.253 nM, the koff is 0.000364 s⁻¹ and the kon turned out to be 1.44e+06 M⁻¹ s⁻¹.

B13: the Kd amounted to 0.187 nM, the koff worked out at 0.000213 s⁻¹ and the kon amounted to 1.14e+06 M⁻¹ s⁻¹.

In turn, B14 yielded a Kd of 0.312 nM, a koff of 0.000403 s⁻¹ and an association rate constant (kon) of 1.29e+06 M⁻¹ s⁻¹.

As to B15, the Kd came to 0.239 nM, the koff is 0.000311 s⁻¹ and the kon came out at 1.3e+06 M⁻¹ s⁻¹.

In turn, B16 had a Kd of 0.177 nM, a koff of 0.000333 s⁻¹ and a kon of 1.88e+06 M⁻¹ s⁻¹.

Take B17: the Kd amounted to 0.621 nM, the koff was 0.001 s⁻¹ and the kon worked out at 1.61e+06 M⁻¹ s⁻¹.

B18 returned a Kd of 0.037 nM, a koff of 6.3e-05 s⁻¹ and a kon of 1.7e+06 M⁻¹ s⁻¹.

With B19, the Kd worked out at 0.306 nM, the dissociation rate constant (koff) was 0.000336 s⁻¹ and the association rate constant (kon) is 1.1e+06 M⁻¹ s⁻¹.

B20 registered a Kd of 0.192 nM, an off-rate constant (koff) of 0.00024 s⁻¹ and a kon of 1.25e+06 M⁻¹ s⁻¹.

Turning to B21, binding was characterised by a dissociation constant (Kd) of 0.452 nM, the koff was 0.000455 s⁻¹ and the on-rate constant (kon) came to 1e+06 M⁻¹ s⁻¹.

B22 yielded a Kd of 0.296 nM, a koff of 0.0003 s⁻¹ and an association rate constant (kon) of 1.02e+06 M⁻¹ s⁻¹.

For B23, the affinity, expressed as Kd, was 0.225 nM; the koff stood at 0.000219 s⁻¹; the kon stood at 970000 M⁻¹ s⁻¹.

Molecule B24 came in with a Kd of 0.365 nM, a koff of 0.000348 s⁻¹ and a kon of 950000 M⁻¹ s⁻¹.

B25 returned a Kd of 0.208 nM, a koff of 0.000247 s⁻¹ and an on-rate constant (kon) of 1.19e+06 M⁻¹ s⁻¹.

B26 came in with a Kd of 0.055 nM, a koff of 7.1e-05 s⁻¹ and a kon of 1.29e+06 M⁻¹ s⁻¹.

Molecule B27 gave a Kd of 0.094 nM, a koff of 0.0001 s⁻¹ and an on-rate constant (kon) of 1.06e+06 M⁻¹ s⁻¹.

B28 registered a dissociation constant Kd of 0.193 nM, a koff of 0.000257 s⁻¹ and a kon of 1.33e+06 M⁻¹ s⁻¹.

B29 returned a Kd of 0.089 nM, a koff of 9e-05 s⁻¹ and a kon of 1.02e+06 M⁻¹ s⁻¹.

Take B30: the Kd worked out at 0.148 nM, the koff is 0.000182 s⁻¹ and the association rate constant (kon) came out at 1.24e+06 M⁻¹ s⁻¹.

For B31, the affinity, expressed as Kd, was 0.495 nM; the koff stood at 0.00048 s⁻¹; the kon came to 970000 M⁻¹ s⁻¹.

Molecule B32 had a Kd of 0.065 nM, a koff of 7.4e-05 s⁻¹ and a kon of 1.13e+06 M⁻¹ s⁻¹.

Take B33: the equilibrium dissociation constant (Kd) worked out at 0.063 nM, the koff stood at 0.000107 s⁻¹ and the kon amounted to 1.71e+06 M⁻¹ s⁻¹.
